According to paper PMC11381347:

Biological target: N-terminal SmBiT-tagged SETD1A FLOS domain fragment (Sm-FO3)
Assay: split-NanoLuciferase-complementation assay with non-tagged competitor
Details: Sm-FO3 + N200-Lg with non-tagged competitor construct; parent: est. 3.6; read off a plot

“non-tagged BOD1L Shg1 fragment N200 (competitor) (from UniProt Q8NFC6) W104A” was tested, and the response was 7.6 RLU, x10^5.
